Measured values as given in paper PMC5096685, “Characterization of CgHIFα-Like, a Novel bHLH-PAS Transcription Factor Family Member, and Its Role under Hypoxia Stress in the Pacific Oyster Crassostrea gigas”.

What was measured:
CgHIFα bHLH-PAS = target: T1, CgHIFα bHLH-PAS (Crassostrea gigas, UniProt B6ZGN4 1-356); assay: EMSA; no ARNT added; positive control; unlabeled Ew 200x competes; anti-His supershift; 10 mM Tris pH 7.5, 50 mM KCl, 1 mM DTT, 50 ng poly(dI-dC) in 20 uL, 20 min at room temperature; conditions: protein: recombinant; tags: His (pET30a); label: biotin end label (probe)
T1 sequence: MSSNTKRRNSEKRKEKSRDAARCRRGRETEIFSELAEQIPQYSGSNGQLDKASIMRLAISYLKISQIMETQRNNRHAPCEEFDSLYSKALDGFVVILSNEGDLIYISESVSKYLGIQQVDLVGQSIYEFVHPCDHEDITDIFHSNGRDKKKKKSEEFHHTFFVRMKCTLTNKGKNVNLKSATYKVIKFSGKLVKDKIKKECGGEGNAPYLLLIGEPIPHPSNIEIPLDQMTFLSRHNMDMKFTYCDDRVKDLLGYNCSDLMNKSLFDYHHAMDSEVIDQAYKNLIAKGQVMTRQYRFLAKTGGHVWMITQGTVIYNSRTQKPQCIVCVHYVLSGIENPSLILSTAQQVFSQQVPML

[1] = target: T2, CgHIFα-like bHLH-PAS (CgHIFαlike-His) (Crassostrea gigas, UniProt A0A167QPK5 1-385); assay: EMSA; no ARNT added; 1 ug protein, 20 fmol probe, 50 ng poly(dI-dC); unlabeled Ew 200x competes; anti-His supershift; 10 mM Tris pH 7.5, 50 mM KCl, 1 mM DTT, 50 ng poly(dI-dC) in 20 uL, 20 min at room temperature; conditions: protein: recombinant; tags: His (pET30a); label: biotin end label (probe)
T2 sequence: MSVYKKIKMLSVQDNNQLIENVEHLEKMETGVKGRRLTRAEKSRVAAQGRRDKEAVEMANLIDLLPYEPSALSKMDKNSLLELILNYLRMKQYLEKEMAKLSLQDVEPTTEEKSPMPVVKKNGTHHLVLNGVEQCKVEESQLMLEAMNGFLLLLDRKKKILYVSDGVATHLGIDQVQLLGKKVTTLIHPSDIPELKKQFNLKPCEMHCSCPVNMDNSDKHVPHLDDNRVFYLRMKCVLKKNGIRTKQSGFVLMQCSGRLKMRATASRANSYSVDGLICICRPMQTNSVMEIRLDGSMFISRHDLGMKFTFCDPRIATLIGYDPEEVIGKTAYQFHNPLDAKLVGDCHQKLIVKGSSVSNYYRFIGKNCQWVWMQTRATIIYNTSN

B1: Ew (human EPO HRE probe) (dsDNA)
DNA 1: GCCCTACGTGCTGTCTCA
DNA 2: TGAGACAGCACGTAGGGC
B1: binds (CgHIFα bHLH-PAS); binds [1].
